Data: article PMC12203963

B1: ALFA-tagged IRT1 (iron-regulated transporter 1), wildtype [Arabidopsis thaliana] / CIPK23 fused to the mCitC fragment [not stated] (parent)
chain 1: MASRTTPSRSTPSRSTPSGSSSGGRTRVGKYELGRTLGEGTFAKVKFARNVENGDNVAIKVIDKEKVLKNKMIAQIKREISTMKLIKHPNVIRMFEVMASKTKIYFVLEFVTGGELFDKISSNGRLKEDEARKYFQQLINAVDYCHSRGVYHRDLKPENLLLDANGALKVSDFGLSALPQQVREDGLLHTTCGTPNYVAPEVINNKGYDGAKADLWSCGVILFVLMAGYLPFEDSNLTSLYKKIFKAEFTCPPWFSASAKKLIKRILDPNPATRITFAEVIENEWFKKGYKAPKFENADVSLDDVDAIFDDSGESKNLVVERREEGLKTPVTMNAFELISTSQGLNLGSLFEKQMGLVKRKTRFTSKSSANEIVTKIEAAAAPMGFDVKTNNYKMKLTGEKSGRKGQLAVATEVFQVAPSLYMVEMRKSGGDTLEFHKFYKNLTTGLKDIVWKTIDEEKEEGTDGGGTNGAMANRTIAKQST
chain 2: ISPATSTAPEECGSESANPCVNKAKALPLKVIAIFVILIASMIGVGAPLFSRNVSFLQPDGNIFTIIKCFASGIILGTGFMHVLPDSFEMLSSICLEENPWHKFPFSGFLAMLSGLITLAIDSMATSLYTSKNAVGIMPHGHGHGHGPANDVTLPIKEDDSSNAQLLRYRVIAMVLELGIIVHSVVIGLSLGATSDTCTIKGLIAALCFHQMFEGMGLGGCILQAEYTNMKKFVMAFFFAVTTPFGIALGIALSTVYQDNSPKALITVGLLNACSAGLLIYMALVDLLAAEFMGPKLQGSIKMQFKCLIAALLGCGGMSIIAKWA

Variants of: B1
Experiment: trimolecular fluorescence complementation (TriFC)
Conditions: with CIPK23 fused to the mCitC fragment; parent: 74; read off a plot

**Q.** For chain 2 H140A H142A, which response is on record?
**A.** 46

**Q.** With chain 2 H140A H142A D151Q as the variant, how does the response read?
**A.** 23

**Q.** For chain 2 D151Q, which response is on record?
**A.** 67
